# Assay: yeast display, Sf9 membrane polyspecificity reagent, FACS + sequencing; frameworks hold sequencing errors
# How it was run: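 Nanobodies came from a synthetic yeast display library in Saccharomyces cerevisiae BJ5465, induced with galactose for 36–48 hours and stained for 1 hour at 4 °C with 10% biotinylated, detergent-solubilized Sf9 membrane reagent. Cells were enriched on streptavidin microbeads and then FACS-sorted, with low and high (top ~1%) gates set on anti-HA fluorescence for expression and streptavidin fluorescence for reagent binding. Each polyreactivity label reflects the gate a clone came from. Genes were amplified by colony PCR, sequenced by MiSeq 2 × 250 and filtered by CDR length.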
row,Sequence,polyreactivity (PSR sort gate)
1,QVQLVESGGGLVQAAGSLRLSCAASGRTFKVYAMGWYRQAPGKERELVAAITWRGGRTYYADSVKGRFTISSDNAKNTVYLQMNSLKPEDTAVYDCAADLYYLTHDYWGQGTQVTVSS,high polyreactivity
2,QVQLVESGGGLVQAGGSLRLSCAASGSTFRTNTMGWYRQAPGKERELVAAITGTGGSTYYADSVKGRFTISRDNAKNTVYLQMNSLKPEDTAVYYCAKRYYRWRRDYSWGQGTQVTVSS,high polyreactivity
3,QVQLVESGGGLVQAGGSLRLSCAASGSIFYPYAMGWYSQAPGKERELVAGISRSGASTYYADSVKGRFTISRDNAKNTVYLQMNSLKPEDTAVYYCAADDWTRNYWGQGTQVTVSS,low polyreactivity
4,QVQLVESGGGLVQAGGSLRLSCAASGRISDRNAMGWYRQAPGKERELVATIRSGGSTNYADSVKGRFTISPDNAMNTVYLQMNSLKPEDTAVYYCATAKLTWRSQGLDYWGQGTQVTVSS,low polyreactivity
5,QVQLVESGGGLVQAGGSLRLSCAASGSIFYINDMGWYRQAPGKERELVASINSSGDSTYYADSVKGRFTISRDNAKNTVYLQMNSLKPEDTAVYYCAADDGYPIQEYDYWGQGTQVTVSS,low polyreactivity
6,QVQLVESGGGLVQAGGSLRLSCAASGFIFRRYAMGWYRQAPGKERELVAAISRTGSTNYADSVKGRFTISRDNAKNTVYLKMNSLKPDDTAVYYCNARYITFNGYGYGYWGQGTQVTVSS,high polyreactivity
7,QVQLVESAGGLFQAGGSLRLSCAASGRIFGWNAMGWYIQATGKESELDAVITSGGITYYADSVKGRFTISPDNAKNTVCLQMISLKPEDTAVYYCAARGTEFYTYYRYYYWGQGTKVTVSS,high polyreactivity
8,QVQLVESGGGLVQAGGSLRLSCAASGSIFAWYGMGWYRQAPGKERELVAAITSTGSTYYADSVKGRFTISRDNAKNTVYLQMNSLKPEDTAVYYCNAYSVYLWRPGDYWGQGTQVTVSS,low polyreactivity
9,QVQLVESGGGLVQAGGSLRLSCAASGSTFQVYTMGWYRQAPGKEREFVASISWSGSSTYYADSVKGRFTISRDNAKNTVYLQMNSLKPEDTAVYYCAAPDESYSVWRLDGLDYWGQGTQVTVSS,high polyreactivity
10,QVQLVESGGGLVQAGGSLRLSCAASGRIFPDYDMGWYRQAPGKERELVAAITQRGGSTYADSVKGRFTISRDNAKNTVYLQMNSLKPEDTAVYYCAREYYEAYEYWGQGTQVTVSS,low polyreactivity
11,QVQLVESGGGLVQAGGSLRLSCAASASIFLVYAMGWYRQAPGKERELVAAISRSGRTYADSVKGRFTISRDNAKNTVYLQMNSLKPEDTAVYYCAAGTKRRFEGDYWGQGTQVTVSS,high polyreactivity
12,QVQLVESGGGLVQAGGSLRLSCAASGSTFYDYAMGWYRQAPGKERELVASISISGGSTYADSVKRRFTISRDNAKNTVYLQMNSLKPEDTAVYYCNAKNYSWDDYDWVPDYEYWGQGTQVTVSS,low polyreactivity
13,QVQLVESGGGLVQAGGSLRLSCAASGFIFRSYVMGWYRQAPGKEMEFVAVITSSGGRTYYADSVKGRFTISRDNAKNTVYLQMNSLKPEDTAVYYCAATRRYPPRRVWYDYWGQGTQVTVSS,high polyreactivity
14,QVQLVESGGGLVQAGGSLRLICAASGRTFYYYAIGWYRQAPGKERELVASISYSAGRTYADSVKGRFTSSRDNAKNTVYLQMNSLKPEDTAVYYCNSDVTTVPYTNDYWGQGTQVTVSS,high polyreactivity
15,QVQLVESGGGLVQAGGSLRLSCAASRSIFEANDMGWYRQAQGKERELVAAIDANTGSTYYADSVKGRFTISRDNAKNTVYLQMNRLKPEDTAVYYCNAQVYLHTAYDYWGQGTQVTVSS,low polyreactivity
16,QVQLVESGGGLVQAGGSLRLSCAASGRTFQYYTMGWYRQAPGKERELVAAIRRGGSTYYADSVKGRFTISRDNAKNTVYLEMNSLKPEDTAVYYCAALYAFSLTARGMEYWGQGTQVTVSS,high polyreactivity
17,QVQIVESGGGLVQAGGSLRLSCAASGRTFAYYAMGWYRQAPGKERELVATISGSGGTTRYADSVKGRFTISRDNAKNTVYLQMNSLKPEDTAVYYCAARYASGRRGEYWGQGTQVTVSS,high polyreactivity
18,QDQLVESGGGIVQAGGSLRLSCAASGRTFYRYAMGWYRQAPGKERELVATISGGGSTNYADSVKGRFTISRDNAKNTVYFQMNSLKPEDTAVYYCAVRLRPPYYLPYYYWGQGTQVTVSS,high polyreactivity
19,QVQLVESGGGLVQAGGSLRLSCAASGSTFAKYVMGWYRQAPGKERELVAAISTRGTRTYYADSVKGRFTISRDTAKNTVYLQMNSLKPEDTAVYYCAVVTIISSRLGNYWGQGTQVTVSS,high polyreactivity
20,QVQLVESGGGLVQAGGRLRLSCAASGIRSYRNGMGWYRQAPGKERELVASISKRADSTYYADSVKGRFTISRDNAKITVYLQMNSLKPEETAVYYCYVVSKVIRGLSGDGYWGQGTQGTVSS,high polyreactivity
21,QVQLVESGGVLVQAGASLRLSCAASGITFVTYAMGWYRQAPGKERELVADISSSGGSSYYADSVKGRFTISLDNAKNTVYLQMNSLKPEDTAVYYWAALATFYPEFDYWGQGTQVTVSS,low polyreactivity

row,Sequence,polyreactivity (PSR sort gate)
1,QVQLVESGGGLVQAGGSLRLSCAASGRTFVSNAMGWYRQAPGKERELVAAISSSGGSTYYADSVKGRFTISRDNAKNTVYLQMNSLKPEDTAVYYCATYPWYSKYRYDHWGQGTQVTVSS,high polyreactivity
2,QVQLVESAGGLVQAGGRLSLSCAASGRTYKKYAMGWYRPEPGKERELVAAITGSGGSTYYADSVKGRFTISRDNAKNTVYLQMNSLKPEDTAVYYCAAYAYGVWDSQDGGNYWGLGTQVTVSS,low polyreactivity
3,QVQLVESGGGLVQAGGSLRLSCAASGSTFWVYTKGWYRQAPGKERELVAAITGSTGNTYYADSVKGRFTISRDNPKNTVYFQMNSLKPEDTAVYYCSADSYWSYRYPMGYDNWGQGSQVTVSS,low polyreactivity
4,QVQLVESGGGLVQAGGSLRLSCAASGSTFFYYAMGWYRQAPGKERELVAAITRGSRTKYADSVKGRFTISRDNAKNTVYLQMNSLKPEDTAVYYCAARKNLYPYCYLWWQDYDYWVQGTQVTVSS,high polyreactivity
5,QVQLVDSGGGLVQAGGSLRLSCAASGLIFYHNTMGWSRQAPGKEREFVASISQSGGSTYYADSVKGRFTISRDNAKNTVYLQMNSLKPEDTAVYYCAKKVRRWRTMDYWGQGTQVTVSS,high polyreactivity
6,QVQLVESGGGLVQAGGSLRLSCAASGSIFGVNAMGWYRQAPGKERELVAAISVSGGRTYYADSVKGRFTISRDNAKNTVYLLMNSLKPEDTAVYYCAATTYIWPYDYWGQGTQVTVSS,low polyreactivity
7,QVQLVESGGGLVLAGGSLRLRCAASGRIFGQYTMGWYRQAPGKERELVAAISRSSSSKYADSVKRRFTISRDNAKNTGYLQMNSLKPEDTAVYYCAAYVYYYGGRTYDYWGQGTQLTVSS,high polyreactivity
8,QGQLVDSGGGVVQAGGSLRLSSAASGRSFGRNVMGWYRPAPGKERELVAAIRYSSGGTYYADSVKGRFTISRDYAKNTVDLQMNSLKPEDTAVYYCAARFFRGYRGGDWGQGTQVTVSS,high polyreactivity
9,QVQLVESGGGLVQAGGSLSLICAASGGTFERYAMGWYRQAPGKERELVAAISRSGGRTYYADSVKGRFTISRDNAKNSVYLQMNSLKPEDTAVYYCNSLGRYRMDYWGQGTQVTVSS,high polyreactivity
10,QVQLVESGGGLVQAGGSLRLSCAASVFTFDENAMGWYRQAPGINYSGASTYYADSVKGRFTISRDNAKNTVYLQMNSLKPDDTAVYYCAAEVVAQMNYWGQGTQVTVSS,low polyreactivity
11,QVQLVESGGGLVQAGGSLRLSCAASGFIFGKYAMGWYRQAPGKEREFVAAITGNGGSTYYADSVKGRFTISRDYAKNTVYLQMNSLKPVDSAVYYCYADRGYRRRSGMVYWGQGTQVSVSS,low polyreactivity
12,QVQLVESGGGLVQAGGSLRLSCAASGSIFYSYTMGWYRQAPGKEMELVAAINSGGSTYYADSVKGRFTISRDNAKNTVYLQMNSLKREDTAVYYCAARRTTSSGGYYYWGQGTQVTVSS,high polyreactivity
13,QVQLVDSGGGLVQAGGSLRVSCAASGLIFTRNAMGWYRPAPGKERELVAAISSSGGSTYYADSVKGRFTISRDNAKNTVYLQLNSLKPEDTAVYYCATDAAYLFTAYDYWGQGTQVTVSS,low polyreactivity
14,QVQLVESGGGLVQAGGSVRLSCAASGRIFRYYALGWYRQAPGQEREWVAGITRGGTTNYADSVKGRFTISRDNATNTVSLQMNSLKPEDTAVYYCAADTRRGIIGYDYWGQGTQVTVSS,high polyreactivity
15,QVQLVESGGGLDQAGGSLRLSCAASGSIFDYYTMGWYRQAPGKERELVASITQSGGSTYYADSVKGRFTISRDNAKNTVYLQMTSLKPEDTAVYYCAADGRYVRIRGDYWGQGTQVTVSS,low polyreactivity
16,QVQLVETGGGLVQAGGSLRLSCAASGGIFVANAMGWYRQAPGKERELVAAISKRGGSTTYADSVKGRFTISRDNAKHTVYLQMNRLKPEDTAVYYCAKVVSPVYLYPSGYDYWGQGTQVTVSS,low polyreactivity
17,QVQLVESGGGLVQAGGSLRLSCAASGRILSTYARGWYRQAPGKETELVAAITRTSGSTYYADSVKGRFTISRDNAKNTVYLQMNSLKPEDTAVDYCAADTWLITWSGQYNSWGQGTQVTVSS,low polyreactivity
18,QVQHVESARGLVPAGGSLRLSCAASGFTVIRYAMGRYRQAPGKERELVAAIRGTGTSTYYADSVKGRFTISRDIAKNTVYLQLNSLKPEDTAVYYCNKVAGRSPYTRYDYWGQGTQVTVSS,low polyreactivity
19,QVQLVESGGGLGQAGGSLRLICAASGIIFLYYAMGWYRQAPGKERELVAAITRSGGNTYYADSVKGRFTISRDNAKNTVYLQMNSLIPEDTAVYYCAARHNSVRGRGYGYDYWGQGTQVTVSS,low polyreactivity
20,QVQLVESGGGLVQAGGSLRLSCAASGSIFPYNDMGWYRQAPGKERELVARITNGGSTNYADSVKGRFTISRDNAKNTVYLQMNSLKPEDTAVYYCNKDGTQEFAPDGHEYWGQGTQVTVSS,low polyreactivity
